Measurements: paper PMC7483523, “Affinity of Skp to OmpC revealed by single-molecule detection” (Scientific Reports, 2020)

Experiments:
[1] = target: T1, OmpC G8C-L139C, dual-labelled (UniProt P06996 22-367, G8C | L139C, dual-labelled with fluorescent dyes on the cysteines (dyes not named for this mutant)); assay: smFRET (intramolecular, on dual-labelled OmpC); 50 pM dual-labelled OmpC diluted from 8 M urea into micromolar wild-type Skp, buffer C, 0.02% tween 20, 23 °C; peak areas of Eapp 0.1 and 0.3 fitted against [Skp]0; settings: both partners purified
T1 construct: OmpC, outer membrane protein; plasmid pET28a-ompC as template; also called OmpC double mutant; source: E. coli BL21(DE3), purified (Ni-NTA) in 8 M urea
T1 sequence (looked up): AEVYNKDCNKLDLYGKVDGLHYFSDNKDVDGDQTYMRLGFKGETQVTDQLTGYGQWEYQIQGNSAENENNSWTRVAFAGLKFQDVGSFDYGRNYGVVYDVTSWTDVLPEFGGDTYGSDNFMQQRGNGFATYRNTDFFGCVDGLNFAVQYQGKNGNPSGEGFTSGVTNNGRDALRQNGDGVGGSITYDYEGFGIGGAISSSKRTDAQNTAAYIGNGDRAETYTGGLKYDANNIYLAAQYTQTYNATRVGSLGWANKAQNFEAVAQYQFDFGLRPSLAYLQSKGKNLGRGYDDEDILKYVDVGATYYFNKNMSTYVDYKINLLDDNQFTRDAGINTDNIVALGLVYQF

[2] = target: T2, OmpC G8C-I232C, dual-labelled (UniProt P06996 22-367, G8C | I232C, dual-labelled with fluorescent dyes on the cysteines (dyes not named for this mutant)); assay: as above; settings: both partners purified
T2 construct: OmpC, outer membrane protein; plasmid pET28a-ompC as template; also called OmpC double mutant; source: E. coli BL21(DE3), purified (Ni-NTA) in 8 M urea
T2 sequence (looked up): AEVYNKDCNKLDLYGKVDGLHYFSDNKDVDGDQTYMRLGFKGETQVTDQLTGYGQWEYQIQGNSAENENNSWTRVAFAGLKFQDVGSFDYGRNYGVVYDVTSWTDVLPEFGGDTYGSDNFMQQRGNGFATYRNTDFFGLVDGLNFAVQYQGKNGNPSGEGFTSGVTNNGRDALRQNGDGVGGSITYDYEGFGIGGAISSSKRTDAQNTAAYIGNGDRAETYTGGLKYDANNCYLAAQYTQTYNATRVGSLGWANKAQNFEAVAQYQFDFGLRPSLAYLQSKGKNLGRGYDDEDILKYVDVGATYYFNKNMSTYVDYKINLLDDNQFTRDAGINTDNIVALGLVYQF

[3] = target: T3, OmpC·Skp3 complex (dual-labelled OmpC G8C-D335C with wild-type Skp) (UniProt P06996 22-367; P0AEU7 21-161, G8C | D335C, fluorescent dyes AF555 and AF647 (maleimide) on the cysteines); assay: as above; settings: both partners purified
T3 construct: OmpC, as the chain of m4; Skp, as the chain of m1; source: formed in the sample from purified urea-denatured OmpC G8C-D335C (50 pM) and purified wild-type Skp; copies: 1 + 3
T3 sequence 1: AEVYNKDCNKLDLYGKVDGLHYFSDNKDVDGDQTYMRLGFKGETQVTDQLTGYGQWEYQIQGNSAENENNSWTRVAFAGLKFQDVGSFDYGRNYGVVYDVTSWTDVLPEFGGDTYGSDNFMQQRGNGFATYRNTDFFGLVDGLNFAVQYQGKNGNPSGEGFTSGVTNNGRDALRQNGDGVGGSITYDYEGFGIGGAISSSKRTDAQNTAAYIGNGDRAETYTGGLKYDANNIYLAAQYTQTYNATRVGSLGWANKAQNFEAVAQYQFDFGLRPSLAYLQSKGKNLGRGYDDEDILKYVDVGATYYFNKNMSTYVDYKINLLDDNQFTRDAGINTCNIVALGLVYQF
T3 sequence 2: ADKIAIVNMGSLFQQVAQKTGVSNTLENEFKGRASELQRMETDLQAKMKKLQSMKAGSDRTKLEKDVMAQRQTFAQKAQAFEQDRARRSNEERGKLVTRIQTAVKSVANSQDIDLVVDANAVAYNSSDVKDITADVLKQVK

[4] = target: the molecule itself; assay: fluorescence correlation spectroscopy (FCS); trimer to monomers; 0.4 nM Skp D128C-Cy3B as tracer in wild-type Skp of various concentrations, denatured by 4 M urea and diluted 100-fold in buffer C (50 mM PB, 100 mM NaCl, pH 7.0), 0.02% tween 20, 23 °C; effective stoichiometric number from the diffusion time fitted against [Skp]0
[5] = target: T4, OmpC G8C-D335C labelled with AF555 and AF647 (UniProt P06996 22-367, G8C | D335C, fluorescent dyes AF555 and AF647 (maleimide) on the cysteines); assay: pscFCS (portion-selectively-chosen FCS on smFRET subpopulations); 50 pM dual-labelled OmpC diluted from 8 M urea into wild-type Skp at subnanomolar to nanomolar concentrations, buffer C, 0.02% tween 20, 23 °C; diffusion times of bound and unbound OmpC compared in the same sample; settings: both partners purified
T4 construct: OmpC, outer membrane protein; plasmid pET28a-ompC as template; Unfolded OmpC, diluted from urea; Residue numbers fit the mature protein without its signal peptide (surmised); also called dual-labelled OmpC; intramolecular labelled OmpC G8C-D335C; source: E. coli BL21(DE3), purified (Ni-NTA) in 8 M urea; diluted from 8 M urea into the sample
T4 sequence (looked up): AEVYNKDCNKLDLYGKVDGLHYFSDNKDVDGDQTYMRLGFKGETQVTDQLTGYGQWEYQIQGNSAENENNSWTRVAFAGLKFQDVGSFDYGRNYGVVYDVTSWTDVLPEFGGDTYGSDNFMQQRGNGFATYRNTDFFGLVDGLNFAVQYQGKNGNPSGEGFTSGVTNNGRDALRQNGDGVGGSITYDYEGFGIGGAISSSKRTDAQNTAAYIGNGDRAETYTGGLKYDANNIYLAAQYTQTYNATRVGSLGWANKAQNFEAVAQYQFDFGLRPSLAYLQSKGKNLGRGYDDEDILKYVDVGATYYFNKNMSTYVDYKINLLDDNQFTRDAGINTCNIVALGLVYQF

[6] = target: T5, OmpC G8C-AF555 with an AviTag on the C-terminus, biotinylated (UniProt P06996 22-367, G8C, AF555 (maleimide) on the cysteine of G8C; biotin on the AviTag's lysine side chain); assay: TIRF colocalization (single molecule); apparent; biotinylated OmpC G8C-AF555 (50 pM) immobilised on a streptavidin coverslip; Skp D128C-AF647 from 500 pM to 8 nM in buffer C, 0.02% tween 20, oxygen scavenging system, 23 °C; alternating laser excitation 532 and 640 nm; settings: both partners purified
T5 construct: OmpC, outer membrane protein; plasmid pET28a-ompC as template; Held on a streptavidin surface by the biotin of the AviTag; also called biotinylated OmpC; source: E. coli BL21(DE3), purified (Ni-NTA) in 8 M urea; biotinylated by BirA
T5 sequence (looked up): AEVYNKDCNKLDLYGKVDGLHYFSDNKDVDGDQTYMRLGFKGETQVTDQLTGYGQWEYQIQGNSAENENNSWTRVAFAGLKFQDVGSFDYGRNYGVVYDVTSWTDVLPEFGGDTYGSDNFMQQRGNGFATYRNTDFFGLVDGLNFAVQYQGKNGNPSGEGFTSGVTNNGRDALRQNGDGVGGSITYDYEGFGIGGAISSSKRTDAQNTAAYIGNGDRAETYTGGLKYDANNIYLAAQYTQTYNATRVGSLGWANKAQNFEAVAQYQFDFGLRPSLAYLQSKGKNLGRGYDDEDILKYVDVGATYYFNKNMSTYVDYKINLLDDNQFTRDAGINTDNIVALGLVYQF

B1: wild-type Skp (natural protein)
chain: ADKIAIVNMGSLFQQVAQKTGVSNTLENEFKGRASELQRMETDLQAKMKKLQSMKAGSDRTKLEKDVMAQRQTFAQKAQAFEQDRARRSNEERGKLVTRIQTAVKSVANSQDIDLVVDANAVAYNSSDVKDITADVLKQVK
notes: Skp, periplasmic chaperone of gram-negative bacteria; plasmid pET28a-skp; In equilibrium between monomer and homotrimer (Skp3); concentrations are counted in Skp monomer; The printed mass of the labelled His-tagged mutant (18.8 kD) and the residue number D128 fit the mature protein without its signal peptide (surmised); also called Skp3 (trimer); Skp monomer; source: E. coli BL21(DE3) pLysS, …
With B1 the binding result [1] was “binds”, the binding result [2] was “binds” and the Kd [3] was 1200 ± 400 nM. The “stoichiometry N” value [4] was 3 and the “stoichiometry N” value [5] was 2.8 ± 0.4 Skp:OmpC.

B2: Skp D128C-AF647 (natural protein)
chain: ADKIAIVNMGSLFQQVAQKTGVSNTLENEFKGRASELQRMETDLQAKMKKLQSMKAGSDRTKLEKDVMAQRQTFAQKAQAFEQDRARRSNEERGKLVTRIQTAVKSVANSQDIDLVVDANAVAYNSSCVKDITADVLKQVK
modifications: AF647 (maleimide) on the cysteine of D128C
notes: Skp; plasmid pET28a-skp as template; source: E. coli BL21(DE3) pLysS, purified (Ni-NTA, desalting), labelled in 4 M urea; not shown: His-tag, N-terminal, kept
For B2, the Kd [6] was 0.55 nM and the “stoichiometry N” value [6] was 3.
